# According to paper PMC5727457 (Nucleic Acids Research, 2017):
# T1: Psy3 (S. cerevisiae, UniProt Q12318 1-242)
# T1 sequence: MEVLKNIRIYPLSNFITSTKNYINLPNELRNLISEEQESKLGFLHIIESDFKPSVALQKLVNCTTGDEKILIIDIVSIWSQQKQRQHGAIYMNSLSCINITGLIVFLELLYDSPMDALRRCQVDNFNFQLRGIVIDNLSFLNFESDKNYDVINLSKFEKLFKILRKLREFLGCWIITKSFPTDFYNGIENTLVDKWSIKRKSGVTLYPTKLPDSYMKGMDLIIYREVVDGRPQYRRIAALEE
# T2: His6-tagged Psy3-Csm2 heterodimer (S. cerevisiae, UniProt Q12318;P40465)
# T2 sequence 1: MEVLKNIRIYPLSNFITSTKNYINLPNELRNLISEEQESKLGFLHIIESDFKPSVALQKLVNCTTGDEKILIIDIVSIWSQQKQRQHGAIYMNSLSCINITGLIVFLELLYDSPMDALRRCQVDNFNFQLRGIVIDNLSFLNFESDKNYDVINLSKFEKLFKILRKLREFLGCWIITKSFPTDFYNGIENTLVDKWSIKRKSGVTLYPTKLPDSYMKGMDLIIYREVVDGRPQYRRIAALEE
# T2 sequence 2: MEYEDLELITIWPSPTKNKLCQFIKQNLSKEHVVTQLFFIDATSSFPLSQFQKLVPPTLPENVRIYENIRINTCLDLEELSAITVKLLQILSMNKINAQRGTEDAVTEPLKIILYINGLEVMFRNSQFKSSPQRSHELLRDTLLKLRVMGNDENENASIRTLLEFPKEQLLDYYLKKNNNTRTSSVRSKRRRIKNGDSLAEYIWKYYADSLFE
# T3: His6-tagged Psy3Δ(1–7)-Csm2 heterodimer (S. cerevisiae, UniProt Q12318;P40465)
# T3 sequence 1: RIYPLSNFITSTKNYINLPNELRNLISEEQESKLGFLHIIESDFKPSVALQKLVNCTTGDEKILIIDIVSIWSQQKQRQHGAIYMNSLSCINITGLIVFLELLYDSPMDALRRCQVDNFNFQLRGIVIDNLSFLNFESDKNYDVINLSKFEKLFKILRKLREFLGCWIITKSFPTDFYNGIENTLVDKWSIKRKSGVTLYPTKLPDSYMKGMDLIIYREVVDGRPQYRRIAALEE
# T3 sequence 2: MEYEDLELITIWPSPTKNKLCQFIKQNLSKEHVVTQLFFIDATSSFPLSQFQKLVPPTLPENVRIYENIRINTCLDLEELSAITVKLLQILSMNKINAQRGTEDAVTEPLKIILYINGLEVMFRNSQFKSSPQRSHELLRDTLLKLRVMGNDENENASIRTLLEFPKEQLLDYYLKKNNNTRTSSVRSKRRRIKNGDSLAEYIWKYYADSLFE
# B1: His6-Shu2 (natural protein)
# chain: MSKDVIEYSKLFAKLVNTNDDTKLDDTIASFLYYMFPRELFIRAISLLESSDMFIYILDRVHNKEGNEHTSLIDVLVDEFYKGSSNSLLEYRLIVKDTNDGAPPILVDIAHWFCSCEEFCKYFHEALEKTDEKEELHDVLINEVDDHLQFSDDRFAQLDPHSLSKQWYFKFDKVCCSHLLAFSILLRSSINVLKFFTVNSNKVFVIAIDNIDEWLNLHINIVE
# B2: Shu1 (natural protein)
# chain: MQFEERLQQLVESDWSLDQSSPNVLVIVLGDTARKYVELGGLKEHVTTNTVAGHVASRERVSVVFLGRVKYLYMYLTRMQAQANGPQYSNVLVYGLWDLTATQDGPQQLRLLSLVLRQCLSLPSKVEFYPEPPSSSVPARLLRFWDHIIR
# B3: Shu2-Shu1 heterodimer (His6 tag removed) (complex)
# chain 1: MSKDVIEYSKLFAKLVNTNDDTKLDDTIASFLYYMFPRELFIRAISLLESSDMFIYILDRVHNKEGNEHTSLIDVLVDEFYKGSSNSLLEYRLIVKDTNDGAPPILVDIAHWFCSCEEFCKYFHEALEKTDEKEELHDVLINEVDDHLQFSDDRFAQLDPHSLSKQWYFKFDKVCCSHLLAFSILLRSSINVLKFFTVNSNKVFVIAIDNIDEWLNLHINIVE
# chain 2: MQFEERLQQLVESDWSLDQSSPNVLVIVLGDTARKYVELGGLKEHVTTNTVAGHVASRERVSVVFLGRVKYLYMYLTRMQAQANGPQYSNVLVYGLWDLTATQDGPQQLRLLSLVLRQCLSLPSKVEFYPEPPSSSVPARLLRFWDHIIR
# B4: Shu2-Shu1(V51L) heterodimer (His6 tag removed) (complex)
# chain 1: MSKDVIEYSKLFAKLVNTNDDTKLDDTIASFLYYMFPRELFIRAISLLESSDMFIYILDRVHNKEGNEHTSLIDVLVDEFYKGSSNSLLEYRLIVKDTNDGAPPILVDIAHWFCSCEEFCKYFHEALEKTDEKEELHDVLINEVDDHLQFSDDRFAQLDPHSLSKQWYFKFDKVCCSHLLAFSILLRSSINVLKFFTVNSNKVFVIAIDNIDEWLNLHINIVE
# chain 2: MQFEERLQQLVESDWSLDQSSPNVLVIVLGDTARKYVELGGLKEHVTTNTLAGHVASRERVSVVFLGRVKYLYMYLTRMQAQANGPQYSNVLVYGLWDLTATQDGPQQLRLLSLVLRQCLSLPSKVEFYPEPPSSSVPARLLRFWDHIIR
# B5: Shu2-Shu1(V51A) heterodimer (His6 tag removed) (complex)
# chain 1: MSKDVIEYSKLFAKLVNTNDDTKLDDTIASFLYYMFPRELFIRAISLLESSDMFIYILDRVHNKEGNEHTSLIDVLVDEFYKGSSNSLLEYRLIVKDTNDGAPPILVDIAHWFCSCEEFCKYFHEALEKTDEKEELHDVLINEVDDHLQFSDDRFAQLDPHSLSKQWYFKFDKVCCSHLLAFSILLRSSINVLKFFTVNSNKVFVIAIDNIDEWLNLHINIVE
# chain 2: MQFEERLQQLVESDWSLDQSSPNVLVIVLGDTARKYVELGGLKEHVTTNTAAGHVASRERVSVVFLGRVKYLYMYLTRMQAQANGPQYSNVLVYGLWDLTATQDGPQQLRLLSLVLRQCLSLPSKVEFYPEPPSSSVPARLLRFWDHIIR
# B6: Csm2 (natural protein)
# chain: MEYEDLELITIWPSPTKNKLCQFIKQNLSKEHVVTQLFFIDATSSFPLSQFQKLVPPTLPENVRIYENIRINTCLDLEELSAITVKLLQILSMNKINAQRGTEDAVTEPLKIILYINGLEVMFRNSQFKSSPQRSHELLRDTLLKLRVMGNDENENASIRTLLEFPKEQLLDYYLKKNNNTRTSSVRSKRRRIKNGDSLAEYIWKYYADSLFE
# Legend:
# [1] = target: T1, Psy3; test: crystal structure
# [2] = target: B1; test: pull-down
# [3] = target: T2, His6-tagged Psy3-Csm2 heterodimer; test: pull-down
# [4] = target: T3, His6-tagged Psy3Δ(1–7)-Csm2 heterodimer; test: pull-down
Binder,binding result [1],binding result [3],also measured
B1,binds,–,–
B2,binds,–,binding result [2]: binds
B3,–,binds,binding result [4]: binds
B4,–,binds,–
B5,–,binds,–
B6,binds,–,–
